Patent publication US20090324700A1, “METHODS AND COMPOSITIONS FOR THE INHIBITION OF CATHEPSINS” (priority 2003, published 2009)

Tests used:
caspase 8 = target: T1, caspase 8 (Homo sapiens, UniProt Q14790); assay: Protease specificity of Spi2A: caspase 8; type: biochemical; conditions: FIG. 6B
T1 construct: purchased Calbiochem or Athens Research and Technology
Experimental: (§1) Protease specificity of Spi2A. RelA^−/− MEFs were transduced with retrovirus encoding Spi2A with a C-terminal 3×FLAG epitope tag and Spi2A-3×FLAG purified using a method described previously (Cooley et al., 1998). Briefly, cells (3×10^9) were lysed and Spi2A-3×FLAG (75 μg) purified by batch Q-Fast Flow ion-exchange chromatography (Pharmacia Biotech) after elution at 160-220 mM NaCl followed by anti-FLAG antibody columns, performed according to manufacturer's instructions (Sigma-Aldrich). Spi2A-3×FLAG was dialysed into PBS and stored as aliquots at −80° C. until needed.
(§2) Proteases were purchases from the manufacturers (Calbiochem or Athens Research and Technology) except granzymes A and B which were purified as described (Hanna et al., 1993) and cathespin V and K, which were purified as described (Bromme et al., 1999; Linnevers et al., 1997). Proteases (20 nM) were incubated in the appropriate assay buffer with Spi2A at 200 nM (at least 10-fold excess of inhibitor to maintain pseudo-first order conditions) for 1 h at 37° C. Control samples included only the enzyme, without the inhibitor. At the end of 1 h protease activity was assayed. […] Substrate hydrolysis was measured in a fluorescence microtiter plate reader (Spectramax Gemini XS, Molecular Devices). Percentage inhibition was calculated from the residual enzyme activity compared to no Spi2A controls. […]

NIH3T3 cells = assay: TNF-α death assays, NIH3T3 cells; type: cell-based; conditions: TNF-α + Z-VAD.fmk 50 μM; FIG. 9B, 10B
Experimental: TNF-α death assays. NIH3T3 cells were transduced with MIGR1 retrovirus (Zhang and Ren, 1998) encoding either GFP alone, or Spi2A in the forward (sense) or reverse (antisense) orientation and stable clones generated, as described previously (Liu et al., 2003). Cells were treated with TNF-α (R&D) and after 16 h the number of live GFP-positive adherent cells were counted by flow cytometry (Liu et al., 2003). Live cells were defined as those that excluded propidium iodide (PI-negative) and had the appropriate size, as defined by forward and side light scatter characteristics. Caspase activity was inhibited by pre-treatment of cells or extracts for 1 h with Z-VAD.fmk (ICN Biomedicals Inc; 50 μM). […] In anti-sense experiments the level of Spi2A mRNA was quantitated by real-time PCR using primers and probes specific for Spi2A (Inglis et al., 1991) and cyclofilin A control mRNA (Medhurst et al., 2000), 4 h after treatment with Z-VAD.fmk ([…]) and TNF-α (10 ng/ml), as described previously (Liu et al., 2003).

human cathepsin K = target: T2, human cathepsin K (Homo sapiens, UniProt P43235); assay: Protease specificity of Spi2A: cathepsin K; type: biochemical; conditions: protease 20 nM, Spi2A 200 nM, 1 h at 37° C; FIG. 6B
T2 construct: made in house
T2 sequence (P43235 115-329): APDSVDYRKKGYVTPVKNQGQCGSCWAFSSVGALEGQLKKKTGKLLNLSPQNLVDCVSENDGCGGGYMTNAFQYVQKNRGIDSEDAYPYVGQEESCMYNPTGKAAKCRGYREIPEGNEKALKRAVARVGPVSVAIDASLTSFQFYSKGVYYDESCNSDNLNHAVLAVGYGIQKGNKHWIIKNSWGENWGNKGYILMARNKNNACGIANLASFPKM
Experimental: as §1, §2

Spi2A mRNA = conditions: mouse, in vivo
human cathepsin L = target: T3, human cathepsin L (Homo sapiens, UniProt P07711); assay: Protease specificity of Spi2A: cathepsin L; type: biochemical; conditions: protease 20 nM, Spi2A 200 nM, 1 h at 37° C; FIG. 6B
T3 construct: purchased Calbiochem or Athens Research and Technology
Experimental: as §1, §2

NF-κB = NF-κB activation, EMSA, RelA^−/− MEFs; type: cell-based, mouse; conditions: TNF-α stimulation
Experimental: The possibility that Spi2A protects from TNF-α-induced apoptosis by directly activating NF-κB was examined. Therefore, using electrophoretic mobility shift assays (EMSAs), studies were conducted to determine whether Spi2A itself promotes NF-κB activation in nuclei from Rel A^−/− MEFs transduced with Spi2A or whether the abrogation of Spi2A mRNA up-regulation by Spi2A antisense message inhibits NF-κB activation in Rel A^+/+ MEFs. […] In Rel A^+/+ MEFs, super-shift analysis confirmed the induction of p50/Rel A by TNF-α. […] Thus, the anti-apoptotic activity of Spi2A is unlikely to be mediated through the modulation of NF-κB activation.

T3 sequence (P07711 114-333): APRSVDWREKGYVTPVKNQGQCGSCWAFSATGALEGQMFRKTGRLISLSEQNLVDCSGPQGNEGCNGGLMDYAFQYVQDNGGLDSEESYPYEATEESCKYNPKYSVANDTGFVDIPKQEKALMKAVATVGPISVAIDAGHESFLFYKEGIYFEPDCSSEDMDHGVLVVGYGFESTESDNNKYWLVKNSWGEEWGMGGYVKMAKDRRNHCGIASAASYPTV
T1 sequence (Q14790 217-374 limits assumed, species assumed): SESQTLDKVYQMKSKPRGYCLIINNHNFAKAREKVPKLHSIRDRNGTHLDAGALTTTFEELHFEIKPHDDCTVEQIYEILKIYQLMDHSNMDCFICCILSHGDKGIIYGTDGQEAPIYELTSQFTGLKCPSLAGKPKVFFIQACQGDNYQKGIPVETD
T1 sequence (Q14790 385-479 limits assumed, species assumed): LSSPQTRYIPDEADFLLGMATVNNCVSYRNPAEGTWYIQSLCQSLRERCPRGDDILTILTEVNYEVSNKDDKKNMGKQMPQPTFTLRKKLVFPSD

B1: Spi2A: murine Spi2A polypeptide, SEQ ID NO:2; purified as C-terminal 3×FLAG protein or expressed from MIGR1 retrovirus in cells and bone-marrow chimeras (protein, listed as Mus musculus)
chain: MAGVSPAVFGCPDVTLGRNTAVREVQENVTSVDSLTLVSSNTDFAFSLYRKLVLKNPDENVVFSPFSICTALALLSLGAKSNTLKEILEGLKFNLTETPEPDIHQGFRYLLDLLSQPGNQVQISTGSALFIEKHLQILAEFKEKARALYQAEAFTADFQQPLKATKLINDYVSNHTQGKIKELISGLKESTLMVLVNYIYFKGKWKNPFDPNDTFKSEFYLDEKRSVIVSMMKTGYLTTPYFRDEELSCTVVELKYTGNASAMFILPDQGRMQQVEASLQPETLRKWKNSLKPRMIHELRLPKFSISTDYSLEHILPELGIREVFSTHADLSAITGTKDLRVSQVVHKAVLDVAEKGTEAAAATGMAGVGCCAVFDFLEIFFNRPFLMIISDTKAHIALFMAKVTNPERSTNFPNGEGASSQRLESKRLCFGDPLCLIGQ
modifications: C-terminal 3xFLAG tag
notes: purified as C-terminal 3×FLAG protein or expressed from MIGR1 retrovirus in cells and bone-marrow chimeras
B1 was tested, and the “Inhibition of protease by Spi2A (percentage inhibition)” value (“Inhibition … (percentage inhibition)” for short) (caspase 8) was “did not extend to any of the caspases tested”, the “Survival against TNF-α in the absence of caspase activity, transduced clones vs GFP” value (NIH3T3 cells) was “markedly improved survival” and the “Inhibition … (percentage inhibition)” value (human cathepsin K) was “extended to all of the lysosomal, papain-like proteases that were examined”. The “Spi2A mRNA in GFP^+ CD8^+ spleen cells” value (Spi2A mRNA) was “significant increase”, the “Inhibition … (percentage inhibition)” value (human cathepsin L) was “extended to all of the lysosomal, papain-like proteases that were examined” and the “Expression of NF-κB complexes (p50/p50, p50/Rel) in nuclei” value (NF-κB) was “did not affect”.
